Results taken from patent US6740638.

Biological target: rat MHC class II molecules on Lewis rat splenic adherent cells (antigen presenting cells) (rat)
Experiment: competition with 10 µM biotin-labeled MBP (87-99) for binding to OX-6/OX-17 positive rat splenic adherent cells, flow cytometry

IC50: 21 µM
Substance: MBP (87-99) peptide analogue with alanine at position 91 (91K>A)
